Test results: article PMC3588017, “Measurement of the Interaction Between Recombinant I-domain from Integrin alpha 2 beta 1 and a Triple Helical Collagen Peptide with the GFOGER Binding Motif Using Molecular Force Spectroscopy” (International Journal of Molecular Sciences, 2013)

Columns and labels:
[1] = molecular target: GFOGER peptide, synthetic triple helical collagen related peptide GPC[GPP]5GFOGER[GPP]5GPCG; assay: dynamic force spectroscopy (AFM); as a1, repeated over a range of loading rates; most dominant peak force against loading rate fitted with the Bell-Evans model; koff at zero applied force; conditions: both partners purified
[2] = molecular target: GPP peptide, synthetic triple helical control peptide GPC[GPP]10GPCG; assay: as above; conditions: both partners purified

koff [1]: 0.44 s⁻¹
koff [2]: 11 s⁻¹
B1: I-domain from integrin alpha 2 beta 1, locked open I-domain cleaved of its GST tag (CLOI) (domain or fragment)
chain: CPSLIDVVVVCDESNSIYPWDAVKNFLEKFVQGLDIGPTKTQVGLIQYANNPRVVFNLNTYKTKEEMIVATSQTSQYGGDLTNTFGAIQYARKYAYSAASGGRRSATKVMVVVTDGESHDGSMLKAVIDQCNHDNILRFGIAVLGYLNRNALDTKNLIKEIKAIASIPTERYFFNVSDEAALLEKAGTLGEQIFSIEG
